From article PMC11090907 (2024)
Where two headings read alike, the source gives them in different places.

T1: RLuc8-L5-ALFA-tag
T1 chain: SRLEEELRRRLTE

T2: ALFA tag-human Fc
T2 chain: SRLEEELRRRLTE

T3: ALFA tag-human Fc
T3 chain: SRLEEELRRRLTE


How the values were obtained:
[1] = molecular target: T1, RLuc8-L5-ALFA-tag; experiment: BRET donor saturation assay; conditions: chain shown with the change, HEK293T cells, 37°C; for response: Acceptor/Donor ratio 20, parent: est. 26, read off a plot; for other: BRET50: parent: 1.4 ± 0.09; for other: BRETmax: parent: 28.4 ± 0.37
[2] = molecular target: T2, ALFA tag-human Fc; experiment: SPR; conditions: chain shown with the change; for response (Response Unit): sdAb at 50 nM, parent: est. 61, read off a plot; for Kd: room temperature, parent: 5.0 ± 0.07 pM
[3] = molecular target: T3, ALFA tag-human Fc; experiment: SPR
[4] = molecular target: T3, ALFA tag-human Fc; experiment: SPR

Row | Binder | other: BRET50 [1] | other: BRETmax [1] | koff [3] [s⁻¹] | also measured
1 | GFP2-L5-sdAbALFA WT S57A; E58S; R59G; R65D; D112V (protein) EVQLQESGGGLVQPGGSLRLSCTASGVTISALNAMAMGWYRQAPGERRVMVAAVASGGNAMYDESVQGRFTVTRDFTNKMVSLQMDNLKPEDTAVYYCHVLEDRVDSFHVYWGQGTQVTVSS | 12.4 | 3.3 | – | response [1]: 2 BRET ratio
2 | GFP2-L5-sdAbALFA WT S57A; E58S; R59G; R65D (protein) EVQLQESGGGLVQPGGSLRLSCTASGVTISALNAMAMGWYRQAPGERRVMVAAVASGGNAMYDESVQGRFTVTRDFTNKMVSLQMDNLKPEDTAVYYCHVLEDRVDSFHDYWGQGTQVTVSS | 9.3 | 14 | – | response [1]: 9.5 BRET ratio
3 | sdAb ALFA WT-TEV-His S57A; E58S; R59G; R65D; D112V (protein) EVQLQESGGGLVQPGGSLRLSCTASGVTISALNAMAMGWYRQAPGERRVMVAAVASGGNAMYDESVQGRFTVTRDFTNKMVSLQMDNLKPEDTAVYYCHVLEDRVDSFHVYWGQGTQVTVSS | – | – | – | response (Response Unit) [2]: 0
4 | sdAb ALFA SER-TEV-His (VHH) VHH: EVQLQESGGGLVQPGGSLRLSCTASGVTISALNAMAMGWYRQAPGERRVMVAAVASGGNAMYRESVQGRFTVTRDFTNKMVSLQMDNLKPEDTAVYYCHVLEDRVDSFHDYWGQGTQVTVSS | – | – | 0.011 | –
5 | sdAb ALFA E-TEV-His (VHH) VHH: EVQLQESGGGLVQPGGSLRLSCTASGVTISALNAMAMGWYRQAPGERRVMVAAVSSRGNAMYRESVQGRFTVTRDFTNKMVSLQMDNLKPEDTAVYYCHVLEDRVDSFHDYWGQGTQVTVSS | – | – | 0.0039 | –
6 | sdAb ALFA WT-TEV-His S57A; E58S (protein) EVQLQESGGGLVQPGGSLRLSCTASGVTISALNAMAMGWYRQAPGERRVMVAAVASRGNAMYRESVQGRFTVTRDFTNKMVSLQMDNLKPEDTAVYYCHVLEDRVDSFHDYWGQGTQVTVSS | – | – | – | Kd [2]: 1.7 nM
7 | GFP2-L5-sdAbALFA WT S57A; E58S; R59G (protein) EVQLQESGGGLVQPGGSLRLSCTASGVTISALNAMAMGWYRQAPGERRVMVAAVASGGNAMYRESVQGRFTVTRDFTNKMVSLQMDNLKPEDTAVYYCHVLEDRVDSFHDYWGQGTQVTVSS | 5.2 | 26.4 | – | –
8 | sdAb ALFA WT-TEV-His S57A; E58S; R59G (protein) EVQLQESGGGLVQPGGSLRLSCTASGVTISALNAMAMGWYRQAPGERRVMVAAVASGGNAMYRESVQGRFTVTRDFTNKMVSLQMDNLKPEDTAVYYCHVLEDRVDSFHDYWGQGTQVTVSS | – | – | – | Kd [2]: 2.4 nM; response (Response Unit) [2]: 57
9 | sdAb ALFA SERR-TEV-His (VHH) VHH: EVQLQESGGGLVQPGGSLRLSCTASGVTISALNAMAMGWYRQAPGERRVMVAAVASGGNAMYDESVQGRFTVTRDFTNKMVSLQMDNLKPEDTAVYYCHVLEDRVDSFHDYWGQGTQVTVSS | – | – | 0.026 | –
10 | sdAb ALFA WT-TEV-His E58S (protein) EVQLQESGGGLVQPGGSLRLSCTASGVTISALNAMAMGWYRQAPGERRVMVAAVSSRGNAMYRESVQGRFTVTRDFTNKMVSLQMDNLKPEDTAVYYCHVLEDRVDSFHDYWGQGTQVTVSS | – | – | – | Kd [2]: 0.8 nM
11 | sdAb ALFA SE-TEV-His (VHH) VHH: EVQLQESGGGLVQPGGSLRLSCTASGVTISALNAMAMGWYRQAPGERRVMVAAVASRGNAMYRESVQGRFTVTRDFTNKMVSLQMDNLKPEDTAVYYCHVLEDRVDSFHDYWGQGTQVTVSS | – | – | 0.0073 | –
12 | sdAb ALFA WT-TEV-His (VHH) VHH: EVQLQESGGGLVQPGGSLRLSCTASGVTISALNAMAMGWYRQAPGERRVMVAAVSERGNAMYRESVQGRFTVTRDFTNKMVSLQMDNLKPEDTAVYYCHVLEDRVDSFHDYWGQGTQVTVSS | – | – | 2.7e-05 | Kd [4]: 0.005 nM
13 | GFP2-L5-sdAbALFA WT E58S (protein) EVQLQESGGGLVQPGGSLRLSCTASGVTISALNAMAMGWYRQAPGERRVMVAAVSSRGNAMYRESVQGRFTVTRDFTNKMVSLQMDNLKPEDTAVYYCHVLEDRVDSFHDYWGQGTQVTVSS | 2.2 | 28.1 | – | –
14 | sdAb ALFA WT-TEV-His S57A; E58S; R59G; R65D (protein) EVQLQESGGGLVQPGGSLRLSCTASGVTISALNAMAMGWYRQAPGERRVMVAAVASGGNAMYDESVQGRFTVTRDFTNKMVSLQMDNLKPEDTAVYYCHVLEDRVDSFHDYWGQGTQVTVSS | – | – | – | Kd [2]: 1130 nM; response (Response Unit) [2]: 3.8
15 | GFP2-L5-sdAbALFA WT S57A; E58S (protein) EVQLQESGGGLVQPGGSLRLSCTASGVTISALNAMAMGWYRQAPGERRVMVAAVASRGNAMYRESVQGRFTVTRDFTNKMVSLQMDNLKPEDTAVYYCHVLEDRVDSFHDYWGQGTQVTVSS | 6.2 | 26.7 | – | –
